Experimental data published in the supplement of paper PMC9170038.

System: MS2 coat protein
Test: apparent KD of MS2 coat protein; designed switch direction (-1 OFF switch, 1 ON switch): -1; higher = weaker reporter binding
Summary of the method: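 Stalled E. coli RNA polymerase transcribed designed RNA switches on Illumina chips, which were then titrated with SNAP-549-labelled MS2 coat protein, doubling from 0.7 or 1.5 nM to 3 µM. Steps lasted from 0.8–1.5 h at the lowest concentration to 10–20 min at the highest. The apparent KD is each design's median over clusters of curve-fitted normalised fluorescence.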

[1] = Eterna round: R95, input ligand: microRNA oligo, concentration not stated
[2] = input ligand: microRNA oligo, concentration not stated
[3] = Eterna round: R95, input ligand: FMN 200 uM
[4] = Eterna round: R95, input ligand: none

Row | Sequence | apparent KD of MS2 coat protein (input ligand: FMN 200 uM) | apparent KD of MS2 coat protein (input ligand: none) | apparent KD of MS2 coat protein [1] | apparent KD of MS2 coat protein [2] | apparent KD of MS2 coat protein [3] | apparent KD of MS2 coat protein [4]
1 | GUCAUGUUAGGAUAUUUCCCAGCUGAGACUACAGAUUGUAGGAAGAAGGAACAUGAGGAUCACCCAUGUGAAAA [Eternabot (L2) Solution 28] (Eterna round: R97, puzzle: Exclusion 4) | 36.6 nM | 39 nM |  |  |  | 
2 | CGCUGGACAGGAUAUGUUCUUGGGCACUUGAGGAUCACCCAAGUCAUCGGGACAACAGGCACAGAAGGGUUUAUGG [salish99_ex5_r4_025] (Eterna round: R97, puzzle: Exclusion 5) | 31.6 nM | 43.9 nM |  |  |  | 
3 | GAGGAACAUGAGGAUCACCCAUGUGAGGAUAUGCAUAGCGAGGUAGUAGAAGUUGAAUGCAGAAGGUACACGGA [JR_Exclu1_Sub076] (puzzle: Exclusion 1) |  |  | 27.5 nM |  |  | 
4 | UUAUUGUGUGUAGGAUAUGCGUGUUAUUAUUAUGCAGAAGGACAUGAGGAUCACCCAUGUGUAUUAUUAUUAUAUAUUAUAUAU [Title] (Eterna round: R96, puzzle: Exclusion NG 1) | 45.3 nM | 27.7 nM |  | 27.2 nM |  | 
5 | GGUUGGCGAGGAUAUACAUGAGGAUCACCCAUGUGAGAGAUACUAGUGAGGUCGAUUGGUAGAAGGCGCUGACG [JL-ex3-2.02 salish99 mod] (puzzle: Exclusion 3) |  |  | 95.5 nM |  | 97.8 nM | 135 nM
6 | AAAAAGCGAGGAUAUGCAUAAGGACCCGGGCGGGAAGUCGGACAUGAGGAUCACCCAUGUAGAAGGCGCAAAAA [Exclss2-V] (puzzle: Exclusion 2) |  |  | 13.2 nM |  | 25.5 nM | 14.4 nM
7 | CAGUACAGAGGAUAUACAUGAGGAUCACCCAUGUGUUUCAGGUACGAGAGUACCGAAUGUAGAAGGCUGUACUG [jl-ex3-4.27 salish99 mod] (Eterna round: R97, puzzle: Exclusion 3) | 229 nM | 24.5 nM |  |  |  | 
8 | UCGGCGCGAGGAUAUGCGGUUUGUGCUUUGGGCCCUGGCGUACAUGAGGAUCACCCAUGUAGAAGGCGCGCCGC [Apr-15 SS2-47] (puzzle: Exclusion 2) |  |  | 15.9 nM |  |  | 
9 | CAAACAAAGUCAGGAUAUGUCAAAUUUGUUACGACAGAAGGGACGGGACCGACACUCACAGACAUGAGGAUCACCCAUGUAAAA [Areris] (Eterna round: R96, puzzle: Exclusion NG 1) | 37.8 nM | 33.5 nM |  | 19 nM |  | 
10 | GGCAGACAUGAGGAUCACCCAUGUCAGGAUAUGGUGCGAUCGUCGAAAGACGAUAGCACCAGAAGGGACAUGCC [Eli x1 4.03] (Eterna round: R97, puzzle: Exclusion 1) | 30.5 nM | 19.1 nM |  |  |  | 
11 | CUAACAUGCUGGUGAUCAUACAUGAGGAUCACCCAUGUAACAAGCUUUUUGUUCGUCUUAUAAGAUUACUAGUAUGU [Stov1/10-B3] (Eterna round: R97, puzzle: Sensor, turn-off variant 1) | 38.8 nM | 52.3 nM |  |  |  | 
12 | UGCGAGUAAGGAUAUUCGCGACCGCCCACAAGGGCAGUCGAGAAGAAGGUACUUGAGGAUCACCCAAGUCCUAA [Quondius] (Eterna round: R97, puzzle: Exclusion 4) | 89.8 nM | 20.8 nM |  |  |  | 
13 | UUAUAAAGAGUGAGGAUAUGCUGGUCCUUGGAUCAGCAGAAGGCACAUGAGGAUCACCCAUGUAAAAUAAUAUU [Mat - Exclusion 4 - JL Mod - D40] (puzzle: Brourd's mod of Exclusion 4) |  |  | 25.4 nM |  |  | 
14 | UGAGUGCUGCGAGGAUAUACAUGAGGAUCACCCAUGUUUUCGUGUGAGGCAAAGCCUCACACGAUGUAGAAGGCGCAGUACUCU [Mat - Exclusion NG 2 - Mod of JL - D35] (Eterna round: R96, puzzle: Exclusion NG 2) | 13.2 nM | 16.1 nM |  | 10.7 nM |  | 
